These results are taken from patent US20230236179A1.

Test [1] deals with human interleukin-1 beta (IL-1β) protein standard (R&D Systems 201-LB-005) (human) (UniProt P01584). The experiment in a line: conventional Simoa sandwich (capture beads + detector m2), 300 pM SβG/15 min; IL-1B at 1.563 fM.
Test [2] shares this target. In words: dSimoa sandwich (capture beads + detector m2), 300 pM streptavidin-DNA/15 min; IL-1B at 100 fM.
Test [3] shares this target. In words: conventional Simoa sandwich (capture beads + detector m2), 150 pM SβG/5 min; IL-1B at 0.391 fM.
For test [4] the target is unchanged. The experiment in a line: conventional Simoa sandwich (capture beads + detector m2), 300 pM SβG/15 min; IL-1B at 100 fM.
Test [5] has the same target. The experiment in a line: conventional Simoa sandwich (capture beads + detector m2), 300 pM SβG/15 min; IL-1B at 0.024 fM.
Test [6] shares this target. The experiment in a line: conventional Simoa sandwich (capture beads + detector m2), 300 pM SβG/15 min; IL-1B at 0.098 fM.
For test [7] the target is unchanged. The experiment in a line: dSimoa sandwich (capture beads + detector m2), 300 pM streptavidin-DNA/15 min; IL-1B at 1 fM.
For test [8] the target is unchanged. The experiment in a line: conventional Simoa sandwich (capture beads + detector m2), 150 pM SβG/5 min; IL-1B at 25 fM.
For test [9] the target is unchanged. In words: conventional Simoa sandwich (capture beads + detector m2), 150 pM SβG/5 min; IL-1B at 1.563 fM.
Test [10] shares this target. In words: dSimoa sandwich (capture beads + detector m2), 300 pM streptavidin-DNA/15 min; IL-1B at 0.1 fM.
Test [11] has the same target. The experiment in a line: dSimoa sandwich (capture beads + detector m2), 300 pM streptavidin-DNA/15 min; IL-1B at 0.05 fM.
Test [12] has the same target. In words: conventional Simoa sandwich (capture beads + detector m2), 300 pM SβG/15 min; IL-1B at 6.25 fM.
For test [13] the target is unchanged. In words: dSimoa sandwich (capture beads + detector m2), 300 pM streptavidin-DNA/15 min; IL-1B at 0.01 fM.
The target is the same in test [14]. The experiment in a line: conventional Simoa sandwich (capture beads + detector m2), 300 pM SβG/15 min; IL-1B at 25 fM.
Test [15] shares this target. In words: conventional Simoa sandwich (capture beads + detector m2), 150 pM SβG/5 min; IL-1B at 100 fM.
The target is the same in test [16]. In words: conventional Simoa sandwich (capture beads + detector m2), 300 pM SβG/15 min; IL-1B at 0.391 fM.
The target is the same in test [17]. The experiment in a line: dSimoa sandwich (capture beads + detector m2), 300 pM streptavidin-DNA/15 min; IL-1B at 10 fM.
Test [18] shares this target. In words: conventional Simoa sandwich (capture beads + detector m2), 150 pM SβG/5 min; IL-1B at 0.098 fM.
For test [19] the target is unchanged. The experiment in a line: dSimoa sandwich (capture beads + detector m2), 300 pM streptavidin-DNA/15 min; IL-1B at 0.5 fM.
The target of test [20] is IL-6 protein standard (R&D Systems 206-IL-010) (UniProt P05231). The experiment in a line: CARD-dELISA sandwich (capture beads + detection antibody m11, streptavidin-poly-HRP, tyramide); IL-6 at 0.1 fM.
Test [21] shares this target. The experiment in a line: CARD-dELISA sandwich (capture beads + detection antibody m11, streptavidin-poly-HRP, tyramide); IL-6 at 1 fM.
The target is the same in test [22]. In words: CARD-dELISA sandwich (capture beads + detection antibody m11, streptavidin-poly-HRP, tyramide); IL-6 at 100 fM.
The target is the same in test [23]. The experiment in a line: CARD-dELISA sandwich (capture beads + detection antibody m11, streptavidin-poly-HRP, tyramide); IL-6 at 0.5 fM.
The target is the same in test [24]. In words: conventional Simoa sandwich on HD-1 (capture beads + detection antibody m11, SβG); IL-6 at 50 fM.
Test [25] has the same target. In words: conventional Simoa sandwich on HD-1 (capture beads + detection antibody m11, SβG); IL-6 at 100 fM.
Test [26] shares this target. The experiment in a line: conventional Simoa sandwich on HD-1 (capture beads + detection antibody m11, SβG); IL-6 at 10 fM.
Test [27] has the same target. The experiment in a line: conventional Simoa sandwich on HD-1 (capture beads + detection antibody m11, SβG); IL-6 at 1 fM.
Test [28] has the same target. In words: conventional Simoa sandwich on HD-1 (capture beads + detection antibody m11, SβG); IL-6 at 0.5 fM.
The target is the same in test [29]. The experiment in a line: CARD-dELISA sandwich (capture beads + detection antibody m11, streptavidin-poly-HRP, tyramide); IL-6 at 10 fM.
Test [30] has the same target. The experiment in a line: conventional Simoa sandwich on HD-1 (capture beads + detection antibody m11, SβG); IL-6 at 0.1 fM.
Test [31] shares this target. In words: CARD-dELISA sandwich (capture beads + detection antibody m11, streptavidin-poly-HRP, tyramide); IL-6 at 50 fM.

UniProt P01584, sequence (P01584 117-269 limits assumed): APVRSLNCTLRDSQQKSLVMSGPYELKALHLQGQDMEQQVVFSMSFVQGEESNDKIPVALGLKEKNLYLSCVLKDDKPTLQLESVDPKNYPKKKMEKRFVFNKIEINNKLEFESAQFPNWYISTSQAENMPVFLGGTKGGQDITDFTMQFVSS
UniProt P05231, sequence (P05231 30-212 limits assumed): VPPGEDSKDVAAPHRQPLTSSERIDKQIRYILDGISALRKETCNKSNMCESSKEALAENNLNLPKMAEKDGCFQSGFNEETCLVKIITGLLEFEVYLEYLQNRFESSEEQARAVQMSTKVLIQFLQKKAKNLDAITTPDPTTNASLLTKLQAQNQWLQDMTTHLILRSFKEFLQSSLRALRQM

Take “IL-1β capture antibody (Biolegend 508202)”: the average AEB turned out to be 0.0379 AEB in [1]; 0.0135 AEB in test [3]; 0.767 AEB in [4]; 0.0428 AEB in test [5]; 0.0271 AEB in [6]; 0.199 AEB in [8]. For the same substance, the average AEB in test [9] came to 0.0222 AEB; in [12], 0.0714 AEB; in test [14], 0.221 AEB; in test [15] it was 0.721 AEB; in test [16] it was 0.029 AEB; in [18] it was 0.0108 AEB. Further, the average AMB in test [2] came out at 0.822 AMB; in [7] it was 0.0133 AMB; in test [10] it was 0.0051 AMB; in test [11] it was 0.0054 AMB; in test [13] it was 0.0044 AMB; in test [17] it was 0.0898 AMB. Besides, in [19], the average AMB amounted to 0.0114 AMB.

Regarding “IL-6 capture antibody (R&D Systems MAB206)”, the average AEB turned out to be 0.0031 AEB in [20]; 0.0058 AEB in test [21]; 0.171 AEB in [22]; 0.005 AEB in test [23]; 0.522 AEB in test [24]; 1.03 AEB in test [25]. The average AEB was 0.111 AEB in test [26]; 0.0151 AEB in [27]; 0.0098 AEB in [28]; 0.0151 AEB in test [29]; 0.005 AEB in test [30]; 0.0937 AEB in test [31].
